US20230174623A1 (MIT, published 2023)

What was measured:
[1] = biological target: collagen type IV (collagen IV coated 96 well-plates, Corning); assay: ELISA, collagen IV coated plate, anti-6xHis-HRP detection
[2] = biological target: collagen type IV (collagen IV coated 96 well-plates, Corning); assay: ELISA on collagen IV coated plate, anti-6xHis-HRP
[3] = biological target: T1, collagen type I (collagen I coated 96 well-plates, Gibco); assay: ELISA, collagen I coated plate, anti-6xHis-HRP detection
T1 construct: also called collagen type 1
T1 sequence (P02454 152-1207, chain 1 of 2): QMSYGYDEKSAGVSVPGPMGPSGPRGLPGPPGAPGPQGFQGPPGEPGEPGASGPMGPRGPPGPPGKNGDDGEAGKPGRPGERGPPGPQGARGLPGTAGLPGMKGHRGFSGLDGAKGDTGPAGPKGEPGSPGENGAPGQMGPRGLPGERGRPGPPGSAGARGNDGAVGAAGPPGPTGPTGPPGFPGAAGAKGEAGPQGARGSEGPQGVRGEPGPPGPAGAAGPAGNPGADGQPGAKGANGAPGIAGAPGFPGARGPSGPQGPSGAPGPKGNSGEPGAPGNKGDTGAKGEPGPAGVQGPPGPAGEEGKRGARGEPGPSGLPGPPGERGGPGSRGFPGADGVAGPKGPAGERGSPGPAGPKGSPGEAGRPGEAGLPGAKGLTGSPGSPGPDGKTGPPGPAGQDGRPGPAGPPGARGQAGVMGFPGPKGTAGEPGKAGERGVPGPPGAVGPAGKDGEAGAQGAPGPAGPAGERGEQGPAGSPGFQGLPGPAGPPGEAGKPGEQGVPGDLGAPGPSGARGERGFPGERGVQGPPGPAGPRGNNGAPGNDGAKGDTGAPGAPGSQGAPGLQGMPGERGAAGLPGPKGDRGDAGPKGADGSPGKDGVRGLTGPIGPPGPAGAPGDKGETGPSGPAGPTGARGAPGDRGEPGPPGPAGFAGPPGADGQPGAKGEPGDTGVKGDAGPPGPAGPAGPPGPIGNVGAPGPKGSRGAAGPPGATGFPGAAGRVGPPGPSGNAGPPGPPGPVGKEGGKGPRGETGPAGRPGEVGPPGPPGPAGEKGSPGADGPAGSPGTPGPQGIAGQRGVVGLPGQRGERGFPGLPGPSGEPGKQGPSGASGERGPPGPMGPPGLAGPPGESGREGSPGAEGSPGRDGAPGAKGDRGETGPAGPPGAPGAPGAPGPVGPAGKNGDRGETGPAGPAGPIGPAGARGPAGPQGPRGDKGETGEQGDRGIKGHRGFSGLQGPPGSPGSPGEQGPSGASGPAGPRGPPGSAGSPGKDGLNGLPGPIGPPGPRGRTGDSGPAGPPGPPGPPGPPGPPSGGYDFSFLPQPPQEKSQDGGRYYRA
T1 sequence (P02466 86-1125, chain 2 of 2, further chain): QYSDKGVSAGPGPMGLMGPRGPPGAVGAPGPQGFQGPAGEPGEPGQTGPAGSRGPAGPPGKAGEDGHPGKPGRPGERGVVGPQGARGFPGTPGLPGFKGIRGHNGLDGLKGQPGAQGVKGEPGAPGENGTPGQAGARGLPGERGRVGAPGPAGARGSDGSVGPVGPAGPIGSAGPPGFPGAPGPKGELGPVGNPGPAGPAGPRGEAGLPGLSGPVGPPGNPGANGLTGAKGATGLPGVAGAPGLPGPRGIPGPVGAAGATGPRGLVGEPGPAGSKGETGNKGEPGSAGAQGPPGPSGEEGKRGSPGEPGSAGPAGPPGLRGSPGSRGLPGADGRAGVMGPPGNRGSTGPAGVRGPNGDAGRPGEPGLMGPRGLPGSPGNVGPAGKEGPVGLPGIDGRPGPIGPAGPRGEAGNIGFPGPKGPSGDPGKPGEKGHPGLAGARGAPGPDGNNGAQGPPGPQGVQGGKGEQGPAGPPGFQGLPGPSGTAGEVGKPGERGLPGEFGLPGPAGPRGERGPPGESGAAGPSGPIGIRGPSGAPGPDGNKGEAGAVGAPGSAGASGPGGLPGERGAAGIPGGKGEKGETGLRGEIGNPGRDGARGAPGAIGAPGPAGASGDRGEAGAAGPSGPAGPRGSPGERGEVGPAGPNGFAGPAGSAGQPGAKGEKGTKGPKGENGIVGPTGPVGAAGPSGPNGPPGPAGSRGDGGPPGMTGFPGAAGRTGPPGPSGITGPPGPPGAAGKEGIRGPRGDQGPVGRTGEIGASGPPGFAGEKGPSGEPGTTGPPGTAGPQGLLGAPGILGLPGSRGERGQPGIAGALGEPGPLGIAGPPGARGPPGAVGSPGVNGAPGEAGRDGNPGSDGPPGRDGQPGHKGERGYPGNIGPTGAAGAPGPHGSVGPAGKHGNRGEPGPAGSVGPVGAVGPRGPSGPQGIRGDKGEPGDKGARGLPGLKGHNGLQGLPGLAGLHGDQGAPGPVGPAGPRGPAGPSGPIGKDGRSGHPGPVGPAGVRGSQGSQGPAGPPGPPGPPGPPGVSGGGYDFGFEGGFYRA

[4] = biological target: T1, collagen type I (collagen I coated 96 …); assay: ELISA on collagen I coated plate, anti-6xHis-HRP
[5] = biological target: T1, collagen type I (collagen I coated 96 …); assay: ELISA on collagen I, anti-His-HRP
[6] = biological target: T1, collagen type I (collagen I coated 96 …); assay: competition ELISA on collagen I; 50 nM biotinylated lumican detected with streptavidin-HRP, rmLAIR1 varied
[7] = biological target: T2, bovine serum albumin (plate blocked with BSA) (bovine, UniProt P02769 25-607); assay: ELISA on a plate blocked with bovine serum albumin, anti-His-HRP detection
T2 construct: Specificity control surface

[8] = biological target: T1, collagen type I (collagen I coated 96 …); assay: ELISA on collagen I after thawing from frozen, with excipients; data not shown
[9] = biological target: T3, CRP-XL-biotin (crosslinked collagen related peptide, biotinylated) (O represents hydroxyproline (all O positions); C-terminal amide (NH2); chains crosslinked to lock the helical structure; biotinylated (site not stated)); assay: kinetic dissociation at 37 C on yeast, MFI of bound CRP-XL-biotin during competition with excess CRP-XL, one-phase exponential decay fit
T3 construct: also called CPP-XL-biotin; soluble collagen peptide mimic

Sequence of collagen type IV (collagen IV coated 96 well-plates, Corning) (P02463 173-1669, chain 1 of 2): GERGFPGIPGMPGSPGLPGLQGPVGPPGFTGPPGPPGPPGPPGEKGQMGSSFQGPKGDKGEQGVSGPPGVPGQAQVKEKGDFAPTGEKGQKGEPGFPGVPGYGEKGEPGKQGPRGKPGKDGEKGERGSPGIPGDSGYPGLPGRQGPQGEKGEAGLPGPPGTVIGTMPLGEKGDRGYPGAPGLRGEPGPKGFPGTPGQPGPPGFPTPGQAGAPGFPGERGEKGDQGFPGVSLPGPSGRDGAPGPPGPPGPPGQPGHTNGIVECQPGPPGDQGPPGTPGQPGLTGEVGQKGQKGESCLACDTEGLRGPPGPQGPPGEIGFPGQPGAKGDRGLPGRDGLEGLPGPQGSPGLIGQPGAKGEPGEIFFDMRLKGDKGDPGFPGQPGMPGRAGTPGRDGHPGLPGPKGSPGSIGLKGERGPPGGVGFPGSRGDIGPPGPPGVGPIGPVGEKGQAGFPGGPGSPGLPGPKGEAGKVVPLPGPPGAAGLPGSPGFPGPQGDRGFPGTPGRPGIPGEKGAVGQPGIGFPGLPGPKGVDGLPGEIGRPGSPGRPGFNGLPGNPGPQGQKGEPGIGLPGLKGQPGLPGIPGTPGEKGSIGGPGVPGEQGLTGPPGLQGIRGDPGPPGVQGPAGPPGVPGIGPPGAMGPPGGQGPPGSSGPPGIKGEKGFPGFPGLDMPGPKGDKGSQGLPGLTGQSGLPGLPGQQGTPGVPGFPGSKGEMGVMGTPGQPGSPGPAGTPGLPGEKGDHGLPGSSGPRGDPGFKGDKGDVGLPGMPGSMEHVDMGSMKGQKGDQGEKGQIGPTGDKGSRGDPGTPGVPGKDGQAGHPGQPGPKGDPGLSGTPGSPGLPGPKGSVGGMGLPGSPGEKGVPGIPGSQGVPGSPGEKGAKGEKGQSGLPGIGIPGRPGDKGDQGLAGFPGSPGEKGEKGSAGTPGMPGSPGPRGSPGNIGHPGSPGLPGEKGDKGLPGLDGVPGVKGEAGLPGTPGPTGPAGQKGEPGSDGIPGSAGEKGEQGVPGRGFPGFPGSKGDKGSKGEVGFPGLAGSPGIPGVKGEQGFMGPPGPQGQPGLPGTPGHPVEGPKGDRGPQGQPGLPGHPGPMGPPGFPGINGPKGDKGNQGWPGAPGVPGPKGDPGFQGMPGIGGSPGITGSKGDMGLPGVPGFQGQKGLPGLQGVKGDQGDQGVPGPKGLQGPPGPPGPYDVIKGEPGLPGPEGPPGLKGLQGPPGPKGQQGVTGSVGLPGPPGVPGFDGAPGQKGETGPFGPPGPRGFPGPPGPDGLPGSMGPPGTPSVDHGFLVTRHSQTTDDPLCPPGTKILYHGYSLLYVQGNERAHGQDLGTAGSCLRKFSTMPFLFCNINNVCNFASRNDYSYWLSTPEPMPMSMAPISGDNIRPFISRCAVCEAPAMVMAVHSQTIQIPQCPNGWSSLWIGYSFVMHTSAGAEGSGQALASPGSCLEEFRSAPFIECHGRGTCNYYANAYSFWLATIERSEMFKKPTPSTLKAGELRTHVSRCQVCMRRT
Sequence of collagen type IV (collagen IV coated 96 well-plates, Corning) (P08122 184-1707, chain 2 of 2, further chain): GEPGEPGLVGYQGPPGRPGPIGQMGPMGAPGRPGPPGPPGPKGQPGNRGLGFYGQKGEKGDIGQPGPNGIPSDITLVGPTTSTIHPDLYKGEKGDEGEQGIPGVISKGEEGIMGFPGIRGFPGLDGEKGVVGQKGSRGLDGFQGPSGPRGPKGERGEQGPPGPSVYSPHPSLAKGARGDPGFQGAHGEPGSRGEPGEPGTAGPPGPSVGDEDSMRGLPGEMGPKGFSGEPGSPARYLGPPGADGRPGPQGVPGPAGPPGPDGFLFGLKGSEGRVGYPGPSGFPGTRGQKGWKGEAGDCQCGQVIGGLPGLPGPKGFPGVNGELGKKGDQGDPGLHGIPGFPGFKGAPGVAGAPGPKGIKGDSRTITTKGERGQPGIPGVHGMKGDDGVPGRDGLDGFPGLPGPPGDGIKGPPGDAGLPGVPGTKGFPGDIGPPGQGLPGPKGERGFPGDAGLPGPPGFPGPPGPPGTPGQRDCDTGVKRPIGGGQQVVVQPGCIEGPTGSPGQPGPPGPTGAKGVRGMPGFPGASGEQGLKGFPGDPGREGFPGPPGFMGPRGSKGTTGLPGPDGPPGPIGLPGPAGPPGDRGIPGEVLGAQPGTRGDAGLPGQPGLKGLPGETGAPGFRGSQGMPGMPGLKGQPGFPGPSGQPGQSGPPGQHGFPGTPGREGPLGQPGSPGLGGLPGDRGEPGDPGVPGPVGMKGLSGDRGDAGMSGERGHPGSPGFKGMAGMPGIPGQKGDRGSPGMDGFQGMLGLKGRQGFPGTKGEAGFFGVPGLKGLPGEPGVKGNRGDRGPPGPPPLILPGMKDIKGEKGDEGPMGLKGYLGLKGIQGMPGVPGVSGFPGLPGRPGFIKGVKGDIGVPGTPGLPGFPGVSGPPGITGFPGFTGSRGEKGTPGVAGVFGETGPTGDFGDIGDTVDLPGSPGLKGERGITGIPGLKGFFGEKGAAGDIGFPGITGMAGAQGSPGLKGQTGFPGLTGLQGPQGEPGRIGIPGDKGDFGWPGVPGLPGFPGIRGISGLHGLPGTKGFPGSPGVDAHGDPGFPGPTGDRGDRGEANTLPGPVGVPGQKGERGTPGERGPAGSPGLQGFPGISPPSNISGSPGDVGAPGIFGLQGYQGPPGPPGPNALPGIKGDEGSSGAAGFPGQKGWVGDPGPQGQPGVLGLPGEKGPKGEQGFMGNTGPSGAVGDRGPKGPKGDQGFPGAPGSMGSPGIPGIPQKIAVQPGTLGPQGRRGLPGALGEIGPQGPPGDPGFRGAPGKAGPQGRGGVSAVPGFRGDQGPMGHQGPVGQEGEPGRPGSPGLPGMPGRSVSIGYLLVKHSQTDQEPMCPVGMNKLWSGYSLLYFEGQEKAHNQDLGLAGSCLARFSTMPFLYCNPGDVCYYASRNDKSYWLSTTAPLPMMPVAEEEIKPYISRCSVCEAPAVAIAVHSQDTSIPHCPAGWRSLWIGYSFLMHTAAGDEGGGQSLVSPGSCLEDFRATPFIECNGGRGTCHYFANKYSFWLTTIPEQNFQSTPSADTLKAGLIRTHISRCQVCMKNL

Binder	Kd [3] [nM]	EC50 (read off the curve) [5] [nM]	binding result [7]	also measured
Lumican-Gluc (His-tagged murine lumican fused to Gaussia luciferase) (other, Expressed in HEK293 cells, 56.6 kDa; also called Lum GLuc) QYYDYDIPLFMYGQISPNCAPECNCPHSYPTAMYCDDLKLKSVPMVPPGIKYLYLRNNQIDHIDEKAFENVTDLQWLILDHNLLENSKIKGKVFSKLKQLKKLHINYNNLTESVGPLPKSLQDLQLTNNKISKLGSFDGLVNLTFIYLQHNQLKEDAVSASLKGLKSLEYLDLSFNQMSKLPAGLPTSLLTLYLDNNKISNIPDEYFKRFTGLQYLRLSHNELADSGVPGNSFNISSLLELDLSYNKLKSIPTVNENLENYYLEVNELEKFDVKSFCKILGPLSYSKIKHLRLDGNPLTQSSLPPDMYECLRVANEITVNGGGSGGGSGGGSKPTENNEDFNIVAVASNFATTDLDADRGKLPGKKLPLEVLKEMEANARKAGCTRGCLICLSHIKCTPKMKKFIPGRCHTYEGDKESAQGGIGEAIVDIPEIPGFKDLEPMEQFIAQVDLCVDCTTGCLKGLANVQCSDLLKKWLPQRCATFASKIQGQVDKIKGAGGDGGGSHHHHHH	130	–	–	Kd [1]: 600 nM; EC50 (read off the curve) [2]: ~60 nM; EC50 (read off the curve) [4]: ~60 nM
extracellular domain of His-tagged murine LAIR-1 (receptor, The entry includes the C-terminal His tag; Expressed in HEK293 cells; also called mLAIR1-His; mLAIR1) QEGSLPDITIFPNSSLMISQGTFVTVVCSYSDKHDLYNMVRLEKDGSTFMEKSTEPYKTEDEFEIGPVNETITGHYSCIYSKGITWSERSKTLELKVIKENVIQTPAPGPTSDTSWLKTYSIYHHHHHH	–	~20	no binding	IC50 (read off the curve) [6]: ~300 nM
His-tagged biotinylated lumican (other, biotinylated (site not stated), also called Lwt-His-b; Lwt-HIS-b) QYYDYDIPLFMYGQISPNCAPECNCPHSYPTAMYCDDLKLKSVPMVPPGIKYLYLRNNQIDHIDEKAFENVTDLQWLILDHNLLENSKIKGKVFSKLKQLKKLHINYNNLTESVGPLPKSLQDLQLTNNKISKLGSFDGLVNLTFIYLQHNQLKEDAVSASLKGLKSLEYLDLSFNQMSKLPAGLPTSLLTLYLDNNKISNIPDEYFKRFTGLQYLRLSHNELADSGVPGNSFNISSLLELDLSYNKLKSIPTVNENLENYYLEVNELEKFDVKSFCKILGPLSYSKIKHLRLDGNPLTQSSLPPDMYECLRVANEITVNGGGSHHHHHH	–	~20	no binding	–
lumican (purified His-tagged murine lumican, not biotinylated) (other, also called Lwt) QYYDYDIPLFMYGQISPNCAPECNCPHSYPTAMYCDDLKLKSVPMVPPGIKYLYLRNNQIDHIDEKAFENVTDLQWLILDHNLLENSKIKGKVFSKLKQLKKLHINYNNLTESVGPLPKSLQDLQLTNNKISKLGSFDGLVNLTFIYLQHNQLKEDAVSASLKGLKSLEYLDLSFNQMSKLPAGLPTSLLTLYLDNNKISNIPDEYFKRFTGLQYLRLSHNELADSGVPGNSFNISSLLELDLSYNKLKSIPTVNENLENYYLEVNELEKFDVKSFCKILGPLSYSKIKHLRLDGNPLTQSSLPPDMYECLRVANEITVNGGGSHHHHHH	–	–	–	fold reduction of binding affinity if lumican was not warmed to 37° C. prior to measurement [8]: ~50 fold
ColG s3a/s3b-Gluc (bacterial collagenase ColG domains s3a/s3b fused to Gaussia luciferase, His-tagged) (other, Expressed in HEK293 cells, 46.1 kDa; also called ColG-Gluc; ColG s3s/s3b-Gluc) PITKEMEPNDDIKEANGPIVEGVTVKGDLNGSDDADTFYFDVKEDGDVTIELPYSGSSNFTWLVYKEGDDQNHIASGIDKNNSKVGTFKSTKGRHYVFIYKHDSASNISYSLNIKGLGNEKLKEKENNDSSDKATVIPNFNTTMQGSLLGDDSRDYYSFEVKEEGEVNIELDKKDEFGVTWTLHPESNINDRITYGQVDGNKVSNKVKLRPGKYYLLVYKYSGSGNYELRVNGGGSGGGSGGGSKPTENNEDFNIVAVASNFATTDLDADRGKLPGKKLPLEVLKEMEANARKAGCTRGCLICLSHIKCTPKMKKFIPGRCHTYEGDKESAQGGIGEAIVDIPEIPGFKDLEPMEQFIAQVDLCVDCTTGCLKGLANVQCSDLLKKWLPQRCATFASKIQGQVDKIKGAGGDGGGSHHHHHH	139	–	–	–
LAIR30.2.K1.B displayed on yeast (Aga2 fusion with c-myc tag) (receptor, not shown: Aga2 protein of yeast, display anchor of the pCTCON2 vector; c-myc tag after the LAIR gene) QEGSLPDITIFPNSSLVISQGTFVTVVCSYSDKHDLYNMVRLEKDGSTFMEKSTAPYKTEDEFEIGPVNETITGHYSCIYSKGITWSERSKTLELKVIKENVIQTPAPGPTSDTLWLKTYSIY	–	–	–	koff [9]: 4.17e-06 s⁻¹
